Article PMC3035457 (Nucleic Acids Research, 2010)

Biological target: T1, MBP-GCM1(167–349) (human, UniProt Q9NP62 167-349)
T1 sequence: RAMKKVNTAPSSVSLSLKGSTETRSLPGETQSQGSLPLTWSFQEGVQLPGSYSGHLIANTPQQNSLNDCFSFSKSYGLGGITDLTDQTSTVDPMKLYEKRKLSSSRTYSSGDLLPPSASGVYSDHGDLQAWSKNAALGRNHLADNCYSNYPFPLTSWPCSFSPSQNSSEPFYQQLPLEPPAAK
Experiment: pull-down

B1: recombinant DUSP23-FLAG (DUSP23 with a C-terminal FLAG tag) (enzyme)
chain: MGVQPPNFSWVLPGRLAGLALPRLPAHYQFLLDLGVRHLVSLTERGPPHSDSCPGLTLHRLRIPDFCPPAPDQIDRFVQIVDEANARGEAVGVHCALGFGRTGTMLACYLVKERGLAAGDAIAEIRRLRPGSIETYEQEKAVFQFYQRTK
B1: binds.
